T1: 临床全血样本裂解液中的MxA蛋白 (human) (UniProt P20591)
T1 sequence (looked up): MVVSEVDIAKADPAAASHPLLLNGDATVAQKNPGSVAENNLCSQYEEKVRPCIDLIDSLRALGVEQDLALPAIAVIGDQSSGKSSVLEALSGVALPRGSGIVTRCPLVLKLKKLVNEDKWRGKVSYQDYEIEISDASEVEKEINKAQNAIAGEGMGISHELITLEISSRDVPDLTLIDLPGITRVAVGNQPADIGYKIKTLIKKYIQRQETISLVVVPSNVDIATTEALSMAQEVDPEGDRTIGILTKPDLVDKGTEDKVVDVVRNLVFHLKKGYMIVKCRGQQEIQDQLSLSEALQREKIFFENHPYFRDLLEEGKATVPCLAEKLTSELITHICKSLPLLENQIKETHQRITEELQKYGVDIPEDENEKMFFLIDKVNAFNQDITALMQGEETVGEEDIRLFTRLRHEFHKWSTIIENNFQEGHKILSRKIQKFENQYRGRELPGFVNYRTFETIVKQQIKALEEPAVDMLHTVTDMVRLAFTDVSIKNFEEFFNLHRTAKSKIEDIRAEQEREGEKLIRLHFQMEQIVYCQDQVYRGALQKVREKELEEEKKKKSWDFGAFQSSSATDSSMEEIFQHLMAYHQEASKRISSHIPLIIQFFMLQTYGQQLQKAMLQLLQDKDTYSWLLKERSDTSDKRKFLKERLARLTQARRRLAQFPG


Biological target: T1, 临床全血样本裂解液中的MxA蛋白 (human)
Experiment: sandwich ELISA on clinical whole-blood lysates, antibody A coated (capture), antibody B-HRP detection

| OD450 [OD450] | Binder |
| --- | --- |
| > 0.6 | 抗体A (MxA-A抗体) (antibody, V domains shown) VH: EVQLVETGGGLVQPKGSLIVSCAASGFTFNRSAMNWVRQAPGKGLEWVARIRTKSNNYATYYADSVKDRFTISRDDSQSMLYLQMNNLKTEDTAMYYCVGGSDFAYWGQGTLVTVSA VL: DIQMTQTTSSLSASLGDRVTISCRASQDISNYLNWFQQKPDGTVKLLIYYTSRLYSGVPSRFSGSGSGTDYSLTITNLEQEDIATYFCQQGNTLPLTFGAGTKLELK |
| > 0.6 | 抗体B (MxA-B抗体) (antibody, V domains shown) VH: QVQLQQSGAELARPGASVKLSCKASGYTFTSYWILWLKQRPGQGLEWIGAVYPGDGDTRYTQKFKGKATLTADKSSSTAYMQLSSLASEDSAVYYCARGYDNSFDYWGQGTTLTVSS VL: DVLMTQTPLSLPVSLGDQASISCRTSQTIVHSNGNTYLEWYLQKPGQSPKLLIYKVSNRFSGVPDRFSGSGSGTDFTLKISRVEAEDLGVYYCFQGSHVPPTFGAGTKLELK |

Source: patent CN116284368A
